Consider 1 molecule from PMC12048511, “An asymmetric nautilus-like HflK/C assembly controls FtsH proteolysis of membrane proteins” (The EMBO Journal, 2025).

This test has as its target T1, FtsH with a C-terminal FLAG epitope (chromosomally encoded) (E. coli, UniProt P0AAI3 1-644).
T1 construct: FtsH, E. coli BL21(DE3), product of the chromosomal ftsH gene with a tag appended to its C-terminus; residues 31-97 (periplasmic domain) are modelled in PDB 9CZ2; Homohexamer; one or two hexamers per HflK/C assembly; also called FtsH-FLAG (C-terminal); tagged FtsH; source: E. coli BL21(DE3), chromosomal ftsH locus modified (no overproduction); anti-FLAG M2 resin from membranes solubilised with …
As to the kind of experiment: co-IP; anti-FLAG M2 resin on solubilised membranes of E. coli with chromosomally FLAG-tagged FtsH (1% DDM or 2% GDN; also detergent-free with Carboxy-DIBMA), eluted with FLAG peptide; no overproduction. The settings on record: partners not purified.

T1 sequence (P0AAI3 whole entry, the tested form may be a part): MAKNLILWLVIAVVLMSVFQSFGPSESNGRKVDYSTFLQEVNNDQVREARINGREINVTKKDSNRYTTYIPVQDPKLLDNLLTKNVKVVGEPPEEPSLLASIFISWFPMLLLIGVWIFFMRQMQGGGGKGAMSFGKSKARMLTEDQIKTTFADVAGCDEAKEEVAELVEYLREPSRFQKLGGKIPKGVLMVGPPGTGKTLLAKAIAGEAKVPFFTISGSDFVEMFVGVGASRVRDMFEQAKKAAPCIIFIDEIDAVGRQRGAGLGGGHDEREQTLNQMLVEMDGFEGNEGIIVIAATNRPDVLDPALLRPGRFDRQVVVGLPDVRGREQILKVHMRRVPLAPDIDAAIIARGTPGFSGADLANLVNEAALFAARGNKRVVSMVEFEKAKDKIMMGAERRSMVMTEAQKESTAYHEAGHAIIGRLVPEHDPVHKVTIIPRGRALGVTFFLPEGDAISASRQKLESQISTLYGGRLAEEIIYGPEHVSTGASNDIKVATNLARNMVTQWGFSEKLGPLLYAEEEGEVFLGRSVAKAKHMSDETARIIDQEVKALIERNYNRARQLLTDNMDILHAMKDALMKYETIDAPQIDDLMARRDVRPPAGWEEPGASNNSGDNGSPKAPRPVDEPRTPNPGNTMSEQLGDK

B1: HflK (endogenous) (natural protein, E. coli (endogenous in BL21(DE3)), UniProt P0ABC7 1-419, looked up)
chain: MAWNQPGNNGQDRDPWGSSKPGGNSEGNGNKGGRDQGPPDLDDIFRKLSKKLGGLGGGKGTGSGGGSSSQGPRPQLGGRVVTIAAAAIVIIWAASGFYTIKEAERGVVTRFGKFSHLVEPGLNWKPTFIDEVKPVNVEAVRELAASGVMLTSDENVVRVEMNVQYRVTNPEKYLYSVTSPDDSLRQATDSALRGVIGKYTMDRILTEGRTVIRSDTQRELEETIRPYDMGITLLDVNFQAARPPEEVKAAFDDAIAARENEQQYIREAEAYTNEVQPRANGQAQRILEEARAYKAQTILEAQGEVARFAKLLPEYKAAPEITRERLYIETMEKVLGNTRKVLVNDKGGNLMVLPLDQMLKGGNAPAAKSDNGASNLLRLPPASSSTTSGASNTSSTSQGDIMDQRRANAQRNDYQRQGE
notes: HflK, E. coli BL21(DE3), SPFH-domain protein; residues 79-355 modelled for most subunits in PDB 9CZ2; 24 alternating HflK and HflC subunits form the nautilus-like assembly; also called HflK/C subunit; source: endogenous, E. coli BL21(DE3), co-purified with FtsH-FLAG on anti-FLAG resin
Turning to B1, the binding result is given as “binds”.
